Measured values reported in patent US20180030111A1.
Like-named read-outs stand apart in the source and are kept apart here.

Legend:
[1] = target: C1q complement (rabbit serum as complement source) (rabbit); test: cell-based or functional assay
[2] = target: FcgRIIIa receptor (CD16a) on human NK cells (human) (UniProt P08637); test: cell-based or functional assay
[3] = target: C1q complement (rabbit serum as complement source) (rabbit); test: cell-based or functional assay; remark: listed apart in the source
[4] = target: FcgRIIIa receptor (CD16a) on human NK cells (human) (UniProt P08637); test: cell-based or functional assay; remark: listed apart in the source
[5] = target: CD32b (FcgRIIb receptor) (human) (UniProt P31994); test: ELISA, purified IgG on coated receptor, ratio against wild-type
Chain of CD32b (FcgRIIb receptor) (human) (P31994 46-217): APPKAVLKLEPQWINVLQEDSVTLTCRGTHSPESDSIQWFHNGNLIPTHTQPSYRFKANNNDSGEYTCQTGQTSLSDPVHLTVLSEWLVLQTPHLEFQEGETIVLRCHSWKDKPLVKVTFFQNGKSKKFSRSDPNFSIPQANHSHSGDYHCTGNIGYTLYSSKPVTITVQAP

CD64 = CD64 (UniProt P12314); test: as above
Chain of CD64 (P12314 16-288 limits assumed): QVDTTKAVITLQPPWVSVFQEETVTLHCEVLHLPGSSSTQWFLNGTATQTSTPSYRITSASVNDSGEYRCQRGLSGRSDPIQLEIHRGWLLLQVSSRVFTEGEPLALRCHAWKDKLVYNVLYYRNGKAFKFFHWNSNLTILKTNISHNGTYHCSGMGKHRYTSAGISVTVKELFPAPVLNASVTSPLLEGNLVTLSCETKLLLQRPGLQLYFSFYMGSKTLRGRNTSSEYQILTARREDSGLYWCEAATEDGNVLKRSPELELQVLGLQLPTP

[6] = target: CD32aH (FcgRIIa receptor, H at position 131) (human) (UniProt P12318); test: as above
Chain of CD32aH (FcgRIIa receptor, H at position 131) (human) (P12318 34-217): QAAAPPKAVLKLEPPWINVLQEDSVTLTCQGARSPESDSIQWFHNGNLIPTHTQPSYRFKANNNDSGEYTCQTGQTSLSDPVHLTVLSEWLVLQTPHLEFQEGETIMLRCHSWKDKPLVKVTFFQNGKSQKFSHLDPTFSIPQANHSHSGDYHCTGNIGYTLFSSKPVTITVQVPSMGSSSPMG

[7] = target: CD32aR (FcgRIIa receptor, R at position 131) (human) (UniProt P12318); test: as above
[8] = target: C1q complement (rabbit serum as complement source) (rabbit); test: cell-based or functional assay; remark: listed apart in the source

Chain of FcgRIIIa receptor (CD16a) on human NK cells (human) (P08637 17-254): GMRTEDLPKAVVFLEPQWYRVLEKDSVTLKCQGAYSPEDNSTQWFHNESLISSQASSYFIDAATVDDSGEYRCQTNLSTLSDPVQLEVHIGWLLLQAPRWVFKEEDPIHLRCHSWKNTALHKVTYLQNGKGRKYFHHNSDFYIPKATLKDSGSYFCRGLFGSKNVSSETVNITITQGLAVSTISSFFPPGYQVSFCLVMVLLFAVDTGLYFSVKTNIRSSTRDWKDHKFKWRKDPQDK

| Substance | CDC [1] | CDC, Antibody concentration (ng/ml) giving 50% lysis of an internal control [1] [ng/mL] | ADCC, EC50: Antibody concentration (ng/ml) giving 50% maximum lysis of an internal control [2] [ng/mL] | CDC, Antibody concentration (ng/ml) giving 50% lysis of an internal control [3] [ng/mL] | CDC, Ratio [WT]/[antibody] [3] | ADCC [4] | ADCC, EC50: Antibody concentration (ng/ml) giving 50% maximum lysis of an internal control [4] [ng/mL] | ADCC, Ratio [WT]/[antibody] [4] | ELISA ratio (purified antibodies) [5] | ELISA ratio (purified antibodies) (CD64) | ELISA ratio (purified antibodies) [6] | ELISA ratio (purified antibodies) [7] | CDC, Ratio [WT]/[antibody] [1] | ADCC, Ratio [WT]/[antibody] [2] | ADCC, EC45: Antibody concentration (ng/ml) giving 45% maximum lysis of an internal control [4] [ng/mL] | CDC, Antibody concentration (ng/ml) giving 50% lysis of an internal control [8] [ng/mL] |
| --- | --- | --- | --- | --- | --- | --- | --- | --- | --- | --- | --- | --- | --- | --- | --- | --- |
| anti-CD20 IgG variant J3B-115 (T359A, S383R, V397M) (antibody) | 3.2 | 145 | 0.57 |  |  |  |  |  |  |  |  |  |  |  |  |  |
| anti-CD20 IgG variant J3A-28 (E333G, A378T, V397M) (antibody) | 7.6 |  |  | 31 | 7.64 | 18.4 | 0.57 | 18.4 | 1.6 | 1.3 | 1.1 | 1.3 |  |  |  |  |
| anti-CD20 IgG variant A3A-31 (K334R, L410R) (antibody) |  | 108 | 1.84 |  |  |  |  |  |  |  |  |  | 2.42 | 0.24 |  |  |
| anti-CD20 IgG variant J3A-06 (A378T, V397M, V412M) (antibody) | 3.7 |  |  | 64.1 | 6.7 | 8.3 | 1.27 | 8.28 | 2.4 | 1.3 | 0.84 | 2 |  |  |  |  |
| anti-CD20 IgG variant K3B-01 (N315D, N361H, P396L) (antibody) | 4 |  |  | 59.6 | 3.97 | 15.2 | 0.69 | 15.2 | 1 | 2.3 | 5.7 | 1 |  |  |  |  |
| anti-CD20 IgG variant K3B-90 (V308A, K334R, A378V, K447N) (antibody) | 20.4 | 23.1 | 0.75 |  |  | 0.6 |  |  | 1.1 | 1.5 | 1.2 | 1.2 | 11.3 | 0.6 |  |  |
| anti-CD20 IgG1 with wild-type Fc (IgG-WT) (antibody) |  | 262 | 0.45 | 237 |  |  | 10.5 | 1 |  |  |  |  | 1 |  | 1.6 | 133 |
| anti-CD20 IgG variant A3A-173 (K248E, K334R, A378V) (antibody) | 29.5 | 16 | 1.38 |  |  | 0.3 |  |  | 1.3 | 1.2 | 0.95 | 1.3 | 16.4 | 0.33 |  |  |
